Measured values reported in patent publication US20240124575A1.
Where two headings read alike, the source gives them in different places.

Experiments:
[1] = molecular target: monkey CD33 on HEK293T-monkey CD33 cells (monkey); assay: FACS on HEK293T-monkey CD33 cells
[2] = molecular target: monkey CD33 on HEK293T-monkey CD33 cells (monkey); assay: FACS on HEK293T-monkey CD33 cells; remark: listed apart in the source
[3] = molecular target: murine CD33 protein (murine) (UniProt Q63994); assay: ELISA, coated murine CD33, antibody 1 nM
[4] = molecular target: monkey CD33 protein (monkey); assay: ELISA, coated monkey CD33, antibody 1 nM
[5] = molecular target: monkey CD33 protein (monkey); assay: ELISA, coated monkey CD33, antibody 1 nM; remark: listed apart in the source
[6] = molecular target: murine CD33 protein (murine) (UniProt Q63994); assay: ELISA, coated murine CD33, antibody 10 nM
[7] = molecular target: monkey CD33 protein (monkey); assay: ELISA, coated monkey CD33, antibody 10 nM
[8] = molecular target: monkey CD33 protein (monkey); assay: ELISA, coated monkey CD33, antibody 10 nM; remark: listed apart in the source
[9] = molecular target: murine CD33 protein (murine) (UniProt Q63994); assay: ELISA, coated murine CD33, antibody 0.1 nM
[10] = molecular target: murine CD33 protein (murine) (UniProt Q63994); assay: ELISA, coated murine CD33, antibody 100 nM
[11] = molecular target: monkey CD33 protein (monkey); assay: ELISA, coated monkey CD33, antibody 0.1 nM
[12] = molecular target: monkey CD33 protein (monkey); assay: ELISA, coated monkey CD33, antibody 100 nM
[13] = molecular target: monkey CD33 protein (monkey); assay: ELISA, coated monkey CD33, antibody 100 nM; remark: listed apart in the source
[14] = molecular target: murine CD33 protein (murine) (UniProt Q63994); assay: ELISA, coated murine CD33, antibody 0.01 nM
[15] = molecular target: monkey CD33 protein (monkey); assay: ELISA, coated monkey CD33, antibody 0.01 nM
[16] = molecular target: monkey CD33 protein (monkey); assay: ELISA, coated monkey CD33, antibody 0.01 nM; remark: listed apart in the source
[17] = molecular target: murine CD33 protein (murine) (UniProt Q63994); assay: ELISA, coated murine CD33, antibody 0.001 nM
[18] = molecular target: monkey CD33 protein (monkey); assay: ELISA, coated monkey CD33, antibody 0.001 nM
[19] = molecular target: monkey CD33 protein (monkey); assay: ELISA, coated monkey CD33, antibody 0.001 nM; remark: listed apart in the source
[20] = molecular target: murine CD33 protein (murine) (UniProt Q63994); assay: ELISA, coated murine CD33, antibody 0.0001 nM
[21] = molecular target: monkey CD33 protein (monkey); assay: ELISA, coated monkey CD33, antibody 0.0001 nM
[22] = molecular target: monkey CD33 protein (monkey); assay: ELISA, coated monkey CD33, antibody 0.0001 nM; remark: listed apart in the source
[23] = molecular target: human CD33 on U937 cells (endogenous) (human) (UniProt P20138); assay: FACS, U937 cells
[24] = molecular target: human CD33 on CHO-K1 cells (CHO-K1-human CD33) (human) (UniProt P20138); assay: FACS, clone CHO-K1-human CD33 B8
[25] = molecular target: human CD33 on CHO-K1 cells (CHO-K1-human CD33) (human) (UniProt P20138); assay: FACS, clone CHO-K1-human CD33 C8
[26] = molecular target: human CD33 on CHO-K1 cells (CHO-K1-human CD33) (human) (UniProt P20138); assay: FACS, clone CHO-K1-human CD33 B11

Chain of murine CD33 protein (murine) (Q63994 18-240 limits assumed): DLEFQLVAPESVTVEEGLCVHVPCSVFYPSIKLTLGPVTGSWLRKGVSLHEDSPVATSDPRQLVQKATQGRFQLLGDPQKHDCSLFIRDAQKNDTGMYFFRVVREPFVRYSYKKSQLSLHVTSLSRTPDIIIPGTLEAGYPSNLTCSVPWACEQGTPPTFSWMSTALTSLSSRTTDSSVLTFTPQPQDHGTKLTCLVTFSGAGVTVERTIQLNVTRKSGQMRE
Chain of human CD33 on CHO-K1 cells (CHO-K1-human CD33) (human) (P20138 18-364): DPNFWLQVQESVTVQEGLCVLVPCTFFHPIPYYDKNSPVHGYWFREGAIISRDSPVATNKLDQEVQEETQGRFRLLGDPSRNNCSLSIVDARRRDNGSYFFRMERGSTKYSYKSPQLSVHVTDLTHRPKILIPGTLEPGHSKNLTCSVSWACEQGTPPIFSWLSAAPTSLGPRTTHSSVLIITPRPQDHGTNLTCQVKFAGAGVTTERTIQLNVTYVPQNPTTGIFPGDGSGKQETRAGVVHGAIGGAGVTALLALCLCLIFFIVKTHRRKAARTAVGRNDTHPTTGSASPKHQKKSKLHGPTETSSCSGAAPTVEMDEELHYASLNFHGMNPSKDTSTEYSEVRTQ
Chain of human CD33 on U937 cells (endogenous) (human) (P20138 18-364): as above

Substance: anti-hel-hIgG1 antibody
- Max MFI [1]: 322 MFI
- Max MFI [2]: 107 MFI
- OD450 [3]: 0.06 OD450
- OD450 [4]: 0.05 OD450
- OD450 [5]: 0.04 OD450
- OD450 [6]: 0.07 OD450
- OD450 [7]: 0.06 OD450
- OD450 [8]: 0.05 OD450
- OD450 [9]: 0.06 OD450
- OD450 [10]: 0.08 OD450
- OD450 [11]: 0.05 OD450
- OD450 [12]: 0.06 OD450
- OD450 [13]: 0.08 OD450
- OD450 [14]: 0.06 OD450
- OD450 [15]: 0.05 OD450
- OD450 [16]: 0.04 OD450
- OD450 [17]: 0.06 OD450
- OD450 [18]: 0.07 OD450
- OD450 [19]: 0.04 OD450
- OD450 [20]: 0.06 OD450
- OD450 [21]: 0.05 OD450
- OD450 [22]: 0.06 OD450

Substance: IgG subtype control (antibody)
- Mean fluorescence intensity of cells [23]: 114 MFI
- Mean fluorescence intensity of cells [24]: 30.9 MFI
- Mean fluorescence intensity of cells [25]: 30.9 MFI
- Mean fluorescence intensity of cells [26]: 30.9 MFI
